Results as given in patent US20230365705A1 (DYNAMICURE BIOTECHNOLOGY, published 2023).
Where “and” joins values, the source holds several entries; their conditions need not be identical. Identical values can stand only once.

T1: Human CD93 on cells (human CD93 expressing CHO cells; HUVEC, U937 and KG1a cells) (human, UniProt Q9NPY3 22-652)
T1 construct: whole, on cells; also called hCD93 expressing CHO cells; hCD93 CHO cells
T1 sequence (looked up): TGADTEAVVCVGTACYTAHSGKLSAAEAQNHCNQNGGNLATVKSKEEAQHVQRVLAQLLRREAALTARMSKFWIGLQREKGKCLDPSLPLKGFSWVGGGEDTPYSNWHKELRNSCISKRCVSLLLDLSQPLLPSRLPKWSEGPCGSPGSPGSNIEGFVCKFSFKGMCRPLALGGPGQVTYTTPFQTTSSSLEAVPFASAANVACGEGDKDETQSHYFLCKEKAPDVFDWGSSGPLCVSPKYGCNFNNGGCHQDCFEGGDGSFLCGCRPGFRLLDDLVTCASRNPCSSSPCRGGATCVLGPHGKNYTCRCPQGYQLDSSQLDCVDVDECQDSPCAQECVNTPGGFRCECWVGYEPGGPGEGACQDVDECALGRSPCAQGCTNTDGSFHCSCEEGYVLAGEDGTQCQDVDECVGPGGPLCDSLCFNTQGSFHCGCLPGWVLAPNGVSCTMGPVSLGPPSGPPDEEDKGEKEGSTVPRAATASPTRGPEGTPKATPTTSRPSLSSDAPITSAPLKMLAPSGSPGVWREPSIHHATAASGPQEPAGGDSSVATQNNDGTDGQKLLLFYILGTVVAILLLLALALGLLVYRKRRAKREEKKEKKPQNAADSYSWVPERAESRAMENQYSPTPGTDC

T2: Human CD93 recombinant protein (Sino Biological Inc, Catalog #12589-H08H) (human, UniProt Q9NPY3 22-580)
T2 construct: Biotinylated (EZ-LINK NHS-PEG4 biotin) in the BLI assays; also called hCD93; His-tagged human CD93
T2 sequence (looked up): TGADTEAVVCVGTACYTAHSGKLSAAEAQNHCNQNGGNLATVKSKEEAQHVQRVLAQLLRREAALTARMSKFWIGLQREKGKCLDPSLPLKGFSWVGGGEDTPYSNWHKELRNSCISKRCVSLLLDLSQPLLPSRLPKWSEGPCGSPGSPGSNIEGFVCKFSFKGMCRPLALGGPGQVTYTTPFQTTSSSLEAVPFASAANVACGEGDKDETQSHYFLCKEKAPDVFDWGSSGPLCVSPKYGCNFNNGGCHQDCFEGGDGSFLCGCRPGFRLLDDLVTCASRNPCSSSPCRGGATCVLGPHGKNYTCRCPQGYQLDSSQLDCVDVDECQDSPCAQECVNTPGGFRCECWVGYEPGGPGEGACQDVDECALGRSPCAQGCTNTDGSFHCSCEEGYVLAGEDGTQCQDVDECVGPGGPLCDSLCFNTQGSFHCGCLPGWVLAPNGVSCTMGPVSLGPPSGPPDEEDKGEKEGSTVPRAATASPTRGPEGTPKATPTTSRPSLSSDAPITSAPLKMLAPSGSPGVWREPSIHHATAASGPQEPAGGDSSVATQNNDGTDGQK

T3: rm VEGFA (recombinant mouse VEGFA) (mouse, UniProt Q00731-2 27-190, limits assumed)
T3 sequence (looked up): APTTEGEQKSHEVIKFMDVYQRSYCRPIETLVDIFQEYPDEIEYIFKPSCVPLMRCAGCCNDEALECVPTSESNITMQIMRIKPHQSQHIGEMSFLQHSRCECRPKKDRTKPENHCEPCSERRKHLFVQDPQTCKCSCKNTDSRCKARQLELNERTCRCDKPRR


Legend:
[1] = target: T1, Human CD93 on cells (human CD93 …); test: flow cytometry on human CD93 expressing CHO cells (10 µg/ml by the text)
[2] = target: T2, Human CD93 recombinant protein (Sino …); test: ELISA, antigen coated at 1 µg/mL
Description: (§1) His-tagged human CD93, cyno CD93, human VEGFA, and mouse VEGFA were coated onto a 96 well plate at 1 μg/mL in 1× PBS overnight at 4′C. The plate was washed with ELISA wash buffer (Boston BioProduct, Inc.) and the wells were blocked with 3% BSA/PBS ELISA blocking buffer for 1 hour at 37′C. […] The plate was washed with ELISA wash Buffer. HRP conjugated Anti-human Fc was added and incubated for one hour at 37° C. The plate was washed with ELISA wash buffer and read in a microplate reader at 405 nm.

[3] = target: T2, Human CD93 recombinant protein (Sino …); test: summary table, column Octet (hCD93)
[4] = target: T2, Human CD93 recombinant protein (Sino …); test: ELISA, hCD93-His coated, OD450
Description: His-tagged human CD93 was coated onto a 96 well plate at 1 μg/mL in 1×PBS overnight at 4° C. The plate was washed with ELISA wash buffer (Boston BioProduct, Inc.) and the wells were blocked with ELISA blocking buffer for 1 hour at 37° C. Purified antibodies were serially diluted in ELISA blocking buffer (Boston BioProduct, Inc.) and incubated on the receptor for 1 hour at 37° C. The plate was washed with ELISA wash Buffer. […] The plate was washed with ELISA wash buffer. HRP substrate was added for indirect detection of the antibodies binding to CD93.

[5] = target: T3, rm VEGFA (recombinant mouse VEGFA); test: ELISA, mVEGFA coated at 1 µg/mL, anti-human Fc HRP; single bars, concentration not given
Description: as §1

[6] = target: T2, Human CD93 recombinant protein (Sino …); test: BLI (Octet QKe), biotinylated human CD93 on streptavidin biosensors
Description: The binding affinity of anti-CD93 antibodies was determined with bio-layer interferometry using Octet QKe (Fortebio). […] Human CD93 recombinant protein (Sino Biological Inc, Catalog #12589-H08H) was biotinylated using EZ-LINK NHS-PEG4 biotin (Thermo Fisher Scientific). Streptavidin biosensors (Fortebio) were used to load biotinylated CD93 protein (300 seconds in 5 μg/ml). Baseline was stabilized for 60 seconds in 1×kinetics buffer (Fortebio) before anti-CD93 antibodies, at a serial dilution, were allowed to associate for 300 seconds with captured protein. Then the sensors were dissociated in 1× kinetics buffer for 600 seconds. […] (FIG. 41).

[7] = target: T4, rh VEGFA (recombinant human VEGFA) (human, UniProt P15692-4 27-191, limits assumed); test: ELISA, antigen coated at 1 µg/mL
Description: as §1

[8] = target: T1, Human CD93 on cells (human CD93 …); test: flow cytometry on human CD93 expressing CHO cells
Description: Human CD93 expressing CHO cells were detached by incubation with TrypLE reagents (Thermo Fisher), which preserves the integrity of CD93 on the cell surface. Then the cells were incubated with serially diluted anti-CD93 antibodies for 30 minutes in 4° C. After washing by FACS buffer, the cells were incubated with Alexa Fluor 647 conjugated anti-human IgG (Jackson ImmunoResearch) for 30 minutes in 4° C. After washing by FACS buffer twice, the samples were acquired in NovoCyte Flow Cytometer and analyzed by NovoExpress software.

[9] = target: T2, Human CD93 recombinant protein (Sino …); test: summary table, column ELISA (hCD93)
[10] = target: T2, Human CD93 recombinant protein (Sino …); test: ELISA, His-tagged human CD93 coated, OD450
Description: (§2) His-tagged human CD93 was coated onto a 96 well plate at 1 μg/mL in 1×PBS overnight at 4° C. The plate was washed with ELISA wash buffer (Boston BioProduct, Inc.) and the wells were blocked with ELISA blocking buffer for 1 hour at 37° C. […] The plate was washed with ELISA wash Buffer. HRP-conjugated anti-human Fc antibody was incubated for 1 hour at 37° C. The plate was washed with ELISA wash Buffer. HRP substrate was added for indirect detection of the antibodies binding to CD93.

[11] = target: T1, Human CD93 on cells (human CD93 …); test: flow cytometry, CHO cells overexpressing human CD93, antibody 0.01ug, mIgG1 as control, APC-A
[12] = target: T2, Human CD93 recombinant protein (Sino …); test: ELISA, His-tagged human CD93 coated, OD450; remark: listed apart in the source
Description: as §2, with “HRP-conjugated anti-human Fc antibody was incubated for 1 hour at 37° C.” left out

[13] = target: T1, Human CD93 on cells (human CD93 …); test: flow cytometry titration on U937 cells; column head printed kd, unit from the axis log (concentration (M))
[14] = target: T1, Human CD93 on cells (human CD93 …); test: flow cytometry titration on KG1a cells; column head printed kd, unit from the axis log (concentration (M))
[15] = target: T4, rh VEGFA (recombinant human VEGFA); test: BLI (Octet), biotinylated rh VEGFA on streptavidin biosensors, sample in serial dilution
Description: (§3) The rh VEGFA was made in-house and biotinylated using EZ-LINK NHS-PEG4 biotin (Thermo Fisher Scientific). Streptavidin biosensors (Fortebio) were used to load biotinylated rh VEGFA protein (300 seconds in 5 μg/ml). […] Then the sensors were dissociated in 1× kinetics buffer for 600 seconds.

[16] = target: T4, rh VEGFA (recombinant human VEGFA); test: BLI (Octet QKe), biotinylated rh VEGFA on streptavidin sensors
Description: as §3

Kd [3]	EC50 [4]	Kd [6]	koff [6]	kon [6]	EC50 [8]	EC50 [9]	EC50 [10]	Binder	other results
–	–	–	–	–	–	–	–	chimeric 7F3/VEGFRFc (chimeric 7F3-Aflibercept) (bispecific antibody, human IgG1, kappa, also called chimeric 7F3/VEGFR construct) heavy: not shown light: ENVLTQSPAIMSASPGEKVTMTCRASSSVSSSYLHWYQQKSGASPKLWIYSTSNLAFGVPARFSGSGSGTSYSLTISSVEAEDAATYYCQQYSGYPLTFGSGTKLEIKRTVAAPSVFIFPPSDEQLKSGTASVVCLLNNFYPREAKVQWKVDNALQSGNSQESVTEQDSKDSTYSLSSTLTLSKADYEKHKVYACEVTHQGLSSPVTKSFNRGEC	binding result [1]: binds; binding result [2]: binds
0.588 nM	0.02 nM	0.588 nM	0.000335 s⁻¹	570000 M⁻¹ s⁻¹	0.4 nM	0.041 nM	0.041 nM	7F3-hIgG1 (recombinant chimeric 7F3) (antibody, V domains shown, also called chimeric 7F3-hIgG1; recombinant 7F3) VH: QVQLQQSGADLVRPGASVKLSCKASGYTFTDYEMHWVKQTPVYGLEWIGGIDPETGDTAYNQNFKGKATLTADKSSSAAYMELRSLTSEDSAVYYCTNYGNLYYYAMDYWGQGTSVTVSS VL: ENVLTQSPAIMSASPGEKVTMTCRASSSVSSSYLHWYQQKSGASPKLWIYSTSNLAFGVPARFSGSGSGTSYSLTISSVEAEDAATYYCQQYSGYPLTFGSGTKLEIK	binding result [5]: no binding; binding result [7]: no binding
–	–	–	–	–	–	–	–	humanized 17B10 (VH3VL3, i.e., H3L3) with a chimeric Fc containing mouse IgG1 CH2 and CH3 domains and human CH1 domains (antibody, V domains shown, Human CH1, mouse IgG1 CH2 and CH3; also called h17B10-H3L3; humanized 17B10-mFc) VH: QVQLVQSGPEVKKPGESLKISCKASGYAFSSYWLNWVRQMPGKGLEWMGRIYPGDGDTDYNGKFKGQVTISADKSSGTAYLQLSSLKASDTAVYFCVRGDGYWAMDYWGQGTLVTVSS VL: DIVMTQSPDSLAVSLGERATINCRFSKSLLHSNGITYLYWYQQKPGQPPKLLIYQMSNLASGVPDRFSGSGSGTDFTLTISSLQAEDVAVYYCAQNLELPWTFGGGTKLEIK	M2 gate, % of cells [11]: 93%; EC50 [12]: 0.213 nM; Kd [13]: 0.104 nM and 0.0944 nM; Kd [14]: 0.0772 nM and 0.0952 nM
–	–	–	–	–	–	–	–	humanized 7F3/VEGFRFc (h7F3/VEGFRFc) (bispecific antibody, human IgG1, kappa, Full-length human IgG1 with VEGF-trap on the C-terminus of both heavy chains; also called humanized 7F3-Aflibercept; h7F3-VEGF trap) heavy: not shown light: EIVLTQSPSSLSASVGDRVTITCRASSSVSSSYLHWYQQKPGKAPKLLIYSTSNLAFGVPSRFSGSGSGTSYTFTISSLQPEDIATYYCQQYSGYPLTFGSGTKLEIKRTVAAPSVFIFPPSDEQLKSGTASVVCLLNNFYPREAKVQWKVDNALQSGNSQESVTEQDSKDSTYSLSSTLTLSKADYEKHKVYACEVTHQGLSSPVTKSFNRGEC	Kd [15]: 2.01 nM; koff [15]: 0.000121 s⁻¹; kon [15]: 60300 M⁻¹ s⁻¹; Kd [16]: 2 nM
0.135 nM	0.022 nM	0.135 nM	2.93e-05 s⁻¹	217000 M⁻¹ s⁻¹	0.24 nM	0.041 nM	0.041 nM	16E4-hIgG1 (recombinant chimeric 16E4) (antibody, V domains shown, the same paragraph once calls it 'humanized'; also called recombinant 16E4) VH: QVQLQQPGAELVKPGASVKLSCKASGYTFTSYWMHWVKQRPGQGLEWIGEIDPSASYTYYNQKFKGKATLTVDKSSSTAYMQLSSLTSEDSAVYYCARSVYYGNKYFDVWGAGTTVTVSS VL: not shown	–
